Results reported in patent US20030078373A1 (published 2003).

T1: rhodanese (UniProt P00586 2-297)
T1 sequence: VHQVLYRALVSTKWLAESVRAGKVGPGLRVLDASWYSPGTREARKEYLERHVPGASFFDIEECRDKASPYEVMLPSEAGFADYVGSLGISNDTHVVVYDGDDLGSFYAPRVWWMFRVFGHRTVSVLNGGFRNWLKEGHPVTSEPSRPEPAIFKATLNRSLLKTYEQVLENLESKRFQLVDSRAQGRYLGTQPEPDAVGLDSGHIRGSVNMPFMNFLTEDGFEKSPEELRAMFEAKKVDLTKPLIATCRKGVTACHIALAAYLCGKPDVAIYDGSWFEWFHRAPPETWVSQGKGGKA

B1: sht-GroEL 191-376 (other)
chain: EGMQFDRGYLSPYFINKPETGAVELESPFILLADKKISNIREMLPVLEAVAKAGKPLLIIAEDVEGEALATLVVNTMRGIVKVAAVKAPGFGDRRKAMLQDIATLTGGTVISEEIGMELEKATLEDLGQAKRVVINKDTTTIIDGVGEEAAIQGRVAQIRQQIEEATSDYDREKLQERVAKLAGGV
B2: sht-GroEL 191-345 (other)
chain: EGMQFDRGYLSPYFINKPETGAVELESPFILLADKKISNIREMLPVLEAVAKAGKPLLIIAEDVEGEALATLVVNTMRGIVKVAAVKAPGFGDRRKAMLQDIATLTGGTVISEEIGMELEKATLEDLGQAKRVVINKDTTTIIDGVGEEAAIQGR

How the values were obtained:
barnase [1] = biological target: T2, barnase (UniProt P00648 48-157); assay: derived from the change from EX2 to EX1 amide proton exchange of barnase (NMR)
T2 sequence (P00648 48-157): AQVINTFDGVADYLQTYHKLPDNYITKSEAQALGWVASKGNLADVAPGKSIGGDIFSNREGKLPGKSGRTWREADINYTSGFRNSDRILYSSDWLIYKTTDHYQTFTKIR

cyclophilin A = cyclophilin A (UniProt P62937 1-165); assay: cell-based or functional assay
rhodanese [2] = biological target: T1, rhodanese; assay: cell-based or functional assay
rhodanese [3] = biological target: T1, rhodanese; assay: estimated from the molar ratio giving maximal refolding yield of rhodanese
barnase [4] = biological target: T2, barnase; assay: derived from amide proton exchange of barnase (NMR); reference value for intact GroEL from the literature

| Binder | koff (barnase [1]) | refolding of inactivated cyclophilin A (cyclophilin A) | rhodanese refolding activity after 25 mins (rhodanese [2]) | Kd (rhodanese [3]) | fold of the dissociation rate constant over that from intact GroEL (barnase [4]) | rhodanese refolding activity (rhodanese [2]) | rhodanese refolding activity above background refolding (rhodanese [2]) | rhodanese refolding activity at about 25 mins (rhodanese [2]) |
| --- | --- | --- | --- | --- | --- | --- | --- | --- |
| B1 | ~2 s⁻¹ | 100% | ~40% | > 100 nM | < 5 fold | – | – | – |
| B2 | – | 100% | – | – | – | ~42.5% | ~37.5% | ~50% |
